Data set [1] concerns PAPSS2. The data set is described as follows: PAPSS2 enzyme activity, coupled radiochemical assay (PAPS generation then SULT1E1-catalyzed sulfation of [3H]estradiol) with COS-1 expressed recombinant allozymes. It is filed as biochemical, human. The conditions noted are these: His-tagged recombinant allozyme, loxP-modified p91023(b) vector, COS-1 cells, corrected for transfection efficiency. From the text: Variant alleles of the four non-synonymous PAPSS2 cSNPs observed during the resequencing experiments were created using the QuickChange Site-Directed Mutagenesis Kit (Stratagene, La Jolla, Calif.), with wild type PAPSS2 cDNA in pUni as template. The sequence of the pUni insert was confirmed by completely sequencing both strands before recombination with the loxP-modified p91023(b) acceptor vector. pUni donor vectors that contained wild type and variant PAPSS2 cDNAs, as well as empty pUni, then were combined with the loxP-modified p91023(b) acceptor vector to generate the final expression constructs. In all cases, the fusion junctions of resultant expression constructs were sequenced to confirm that the construct was a dimer consisting of only a single donor and a single acceptor vector. These expression constructs were used to transfect COS-1 cells using TransFast™ reagent (Promega) with a 1:1 charge ratio. pSV-β-galactosidase (Promega) was co-transfected with each construct as an internal control to correct for transfection efficiency. Transfected COS-1 cells were harvested after 48 hours and were homogenized with a Polytron homogenizer (Brinkmann Instruments, Westbury, N.Y.) in 25 mM potassium phosphate buffer, pH 7.8, containing 1 mM dithiothreitol (DTT) and 1 mM EDTA. The homogenates were centrifuged at 15,000 g for 15 minutes, and the resultant supernatant preparations were used to perform enzyme assays, substrate kinetic studies and Western blot analyses. In some cases, aliquots of these cytosol preparations were stored at −80° C. prior to assay.
PAPSS2 Enzyme Activity: PAPSS2 activity was measured with a coupled radiochemical assay. See Xu et al., 2001, supra. Briefly, PAPS is generated from ATP and Na2SO4 in a PAPSS2-catalyzed reaction. The generated PAPS is then used as a substrate for the SULT1E1-catalyzed sulfate conjugation of [2,4,6,7-^3H]estradiol, a radioactively labeled sulfate acceptor substrate. The cell homogenate preparations of recombinant PAPSS2 allozymes described above were used for the activity studies without any further purification. The protein concentration of each recombinant protein preparation was determined by the dye-binding method of Bradford with bovine serum albumin (BSA) as a standard.
PAPS synthesis was catalyzed by recombinant wild-type PAPSS2 or PAPSS2 allozymes (present in the cell homogenate preparations described above) in the presence of 1 mM ATP, 16 mM Na2SO4, 1 mM MgCl2, and 2 mM DTT in 60 mM glycine-NaOH buffer, pH 8.6. Blank samples included the same quantity of COS-1 cytosol protein from cells that had been transfected with empty expression vector to make it possible to correct for endogenous activity. Reaction mixtures were incubated at 37° C. for 20 minutes, and then terminated by heating at 100° C. for 1 minute. An aliquot from this PAPS-generating reaction was then added to a second, coupled reaction containing recombinant human SULT1E1 isolated from COS-1 cells transfected with a SULT1E1 expression construct (see Aksoy et al., Biochem. Biophys. Res. Commun., 200:1621–1629 (1994)). The coupled reaction also included 27 nM [2,4,6,7-^3H]estradiol, 8 mM DTT and 1.25 mM MgCl2 in 10 mM potassium phosphate buffer, pH 6.5. The second, SULT1E1-catalyzed reactions were incubated at 37° C. for 20 minutes, and then terminated by the addition of KOH, followed by organic solvent extraction performed with chloroform. Radioactivity of the sulfate conjugated [2,4,6,7-^3H]estradiol in the aqueous phase after organic solvent extraction was then measured in a liquid scintillation counter. PAPSS activities of recombinant PAPSS2 allozymes were compared after correction for transfection efficiency by measuring the activity of cotransfected P-galactosidase. β-Galactosidase activity in the COS-1 cell preparations was measured with the β-Galactosidase Assay System (Promega) as described by the manufacturer. […]

Data set [2] deals with PAPSS2. Briefly: Substrate kinetic studies of recombinant PAPSS2 with ATP and Na2SO4. It is filed as biochemical, human. As for the experimental part: To estimate apparent Km values of PAPSS2 for the two reaction cosubstrates, a series of ATP (0.125–4 mM) and Na2SO4 (0.125–16 mM) concentrations were tested with the recombinant allozymes. When ATP was the varied substrate, the concentration of Na2SO4 was 4 mM, and when Na2SO4 was the varied substrate, the concentration of ATP was 1 mM. Blanks for each substrate concentration were included by assaying COS-1 cell cytosol after transfection with empty vector.
Data Analysis: Apparent Km values were calculated by using the method of Wilkinson with a computer program written by Cleland. Wilkinson, Biochem. J., 80:324–332 (1961); and Cleland, Nature, 198:[…] (1963). Statistical comparisons of data were performed by ANOVA with the StatView program, version 4.5 (Abacus Concepts, Inc., Berkeley, Calif.). Apparent Km, S50 and Vmax values for the wild-type and variant PAPSS2 allozymes were compared by the use of unpaired Student's t-test.
Alterations in amino acid sequence can alter enzyme substrate affinity and/or catalytic efficiency. Decreased activity of the Val291Met allozyme—without a significant alteration in level of enzyme protein—could have resulted from a change in substrate kinetics. Therefore, a series of ATP (0.125–4 mM) and Na2SO4 (0.125–16 mM) concentrations were used to estimate apparent Km values for recombinant wild type PAPSS2 and for the Val291Met variant allozyme. […] ATP concentrations at which 50% maximal velocity was achieved (S50 values) were 0.70 and 0.95 mM for the wild type and variant allozymes, respectively (Table 4). In both cases, the Hill coefficient was greater than 2, […]. In contrast, substrate kinetics of both allozymes for Na2SO4 conformed to Michaelis-Menten predictions (FIG. 5B). […] In summary, decreased activity for the Val1291Met variant appeared to result from an alteration in substrate kinetics, while decreased activity for the Glu10Lys allozyme, in contrast, resulted primarily from a decrease in the quantity of enzyme protein. Because the Val291Met variant was encoded by a construct that contained the most common PAPSS2 nonsynonymous cSNP, these observations could have functional implications for the sulfate conjugation of both endogenous and/or exogenous compounds.

Setting [3] is: ATP varied 0.125-4 mM, Na2SO4 4 mM, listed as Wild Type.

The values below come from US7186551B1, “3′-phosphoadenosine -5′-phosphosulfate synthetase 2 (PAPSS2) sequence variants” (Mayo Foundation for Medical Education and Research, priority 2001, dated 2007).

B1: wild type: reference human PAPSS2 polypeptide (SEQ ID NO:9, GenBank AF091242), recombinantly expressed in COS-1 cells (protein, listed as Homo sapiens)
chain: MSGIKKQKTENQQKSTNVVYQAHHVSRNKRGQVVGTRGGFRGCTVWLTGLSGAGKTTISFALEEYLVSHAIPCYSLDGDNVRHGLNRNLGFSPGDREENIRRIAEVAKLFADAGLVCITSFISPFAKDRENARKIHESAGLPFFEIFVDAPLNICESRDVKGLYKRARAGEIKGFTGIDSDYEKPETPERVLKTNLSTVSDCVHQVVELLQEQNIVPYTIIKDIHELFVPENKLDHVRAEAETLPSLSITKLDLQWVQVLSEGWATPLKGFMREKEYLQVMHFDTLLDDGVINMSIPIVLPVSAEDKTRLEGCSKFVLAHGGRRVAILRDAEFYEHRKEERCSRVWGTTCTKHPHIKMVMESGDWLVGGDLQVLEKIRWNDGLDQYRLTPLELKQKCKEMNADAVFAFQLRNPVHNGHALLMQDTCRRLLERGYKHPVLLLHPLGGWTKDDDVPLDWRMKQHAAVLEEGVLDPKSTIVAIFPSPMLYAGPTEVQWHCRSRMIAGANFYIVGRDPAGMPHPETKKDLYEPTHGGKVLSMAPGLTSVEIIPFRVAAYNKAKKAMDFYDPARHNEFDFISGTRMRKLAREGENPPDGFMAPKAWKVLTDYYRSLEKN
Take B1: the “% WT activity” value with PAPSS2 [1] is given as 100%. The “S50 for ATP (ATP concentration at which 50% maximal velocity was achieved)” value is reported as 0.70 mM in the data set on PAPSS2 [2] (ATP varied 0.125-4 mM, Na2SO4 4 mM) and 0.70 ± 0.01 mM in the data set with PAPSS2 [2] (setting [3]). Further, in the data set with PAPSS2 [2] (setting [3]), the “Hill coefficient, ATP” value was 5.4 ± 0.1. For the same molecule, in the data set on PAPSS2 [2] (apparent Km, Na2SO4 varied 0.125-16 mM, ATP 1 mM), the Michaelis-Menten constant (Km) was determined as 870 µM. Moreover, the “Vmax/S50, ATP” value with PAPSS2 [2] (ratio, wild type = 100, ATP as varied substrate) is recorded as 100. Moreover, the “Vmax, ATP” value in the data set on PAPSS2 [2] (relative Vmax, wild type = 100, ATP as varied substrate) was 100. The “Vmax, Na2SO4” value in the data set on PAPSS2 [2] (relative Vmax, wild type = 100, Na2SO4 as varied substrate) was determined as 100.
